Reference: patent publication US20080032921A1

Tests used:
HLA-DR DRB1*0101 (human) [1] = experiment: competition assay, purified HLA, inhibition of 125I-labelled reference peptide
HLA-DR DRB1*1501 (human) [2] = experiment: as above
HLA-DR DRB1*0401 (human) [3] = experiment: as above
HLA-DR DRB1*1302 (human) [4] = experiment: as above
HLA-DR DRB4*0101 (human) = experiment: as above
HLA-DR DRB1*0101 (human) [5] = experiment: competition with 125I-labelled reference peptide on purified HLA-DR
HLA-DR DRB1*0301 (human) = experiment: as above
HLA-DR DRB1*1101 (human) = experiment: as above
HLA-DR DRB1*0701 (human) = experiment: as above
HLA-DR DRB1*0405 (human) = experiment: as above
HLA-DR DRB1*1501 (human) [6] = experiment: as above
HLA-DR DRB1*0401 (human) [7] = experiment: as above
HLA-DR DRB1*1302 (human) [8] = experiment: as above
HLA-DR DRB1*0404 (human) = experiment: as above
[9] = biological target: purified HLA DRB1*0101 (human); experiment: competition with 125I-labelled peptide for purified HLA
[10] = biological target: purified HLA DRB1*0404 (human); experiment: as above
[11] = biological target: purified HLA DRB1*0701 (human); experiment: as above
[12] = biological target: purified HLA DRB1*1302 (human); experiment: as above
[13] = biological target: purified HLA DRB1*0405 (human); experiment: as above
[14] = biological target: purified HLA DRB1*0401 (human); experiment: as above
[15] = biological target: purified HLA DRB1*0301 (human); experiment: as above
[16] = biological target: purified HLA DRB1*1101 (human); experiment: as above
[17] = biological target: purified HLA DRB1*1501 (human); experiment: as above

B1: Flu.NS2.125 (peptide)
peptide: VMRMGDLHSLQNRNG
modifications: not checked
HLA-DR DRB1*0101 (human) [1]
  IC50: 249 nM
HLA-DR DRB1*1501 (human) [2]
  IC50: 372 nM
HLA-DR DRB1*0401 (human) [3]
  IC50: 448 nM
HLA-DR DRB1*1302 (human) [4]
  IC50: 1370 nM
HLA-DR DRB4*0101 (human)
  IC50: 8820 nM

B2: Flu.NS2.87 (peptide)
peptide: DILMRMSKMQLGSSS
modifications: not checked
HLA-DR DRB1*0101 (human) [1]
  IC50: 2140 nM
HLA-DR DRB1*1501 (human) [2]
  IC50: 748 nM
HLA-DR DRB1*0401 (human) [3]
  IC50: 717 nM
HLA-DR DRB1*1302 (human) [4]
  IC50: 423 nM
HLA-DR DRB4*0101 (human)
  IC50: 11 nM

B3: Flu.NP.43 peptide … (peptide)
peptide: YIQMCTELKLSDYEG
modifications: not checked
HLA-DR DRB1*0101 (human) [5]
  IC50: 320 nM
HLA-DR DRB1*0301 (human)
  IC50: 368 nM
HLA-DR DRB1*1101 (human)
  IC50: 5840 nM
HLA-DR DRB1*0701 (human)
  IC50: 5370 nM
HLA-DR DRB1*0405 (human)
  IC50: 2690 nM
HLA-DR DRB1*1501 (human) [6]
  IC50: 594 nM
HLA-DR DRB1*0401 (human) [7]
  IC50: 392 nM
HLA-DR DRB1*1302 (human) [8]
  IC50: 15400 nM
HLA-DR DRB1*0404 (human)
  IC50: 1640 nM
[9]
  IC50: 320 nM
[10]
  IC50: 1640 nM
[11]
  IC50: 5370 nM
[12]
  IC50: 15400 nM
[13]
  IC50: 2690 nM
[14]
  IC50: 392 nM
[15]
  IC50: 368 nM
[16]
  IC50: 5840 nM
[17]
  IC50: 594 nM
